Assay results published in patent US20090075291A1, “PEPTIDE-BASED REGULATION OF GAP JUNCTIONS” (The Research Foundation of State University of New York, priority 2006, published 2009).

Tests used:
[1] = system: junctional conductance (Gj) of cell pairs; experiment: Heptanol-induced uncoupling of cell pairs, junctional conductance time course; format: cell-based; conditions: compared with cell pairs without peptide
Method: Cells were treated with heptanol to reduce coupling and with NL.RXPE.

[2] = biological target: T1, cardiac Cx43 (Rattus norvegicus, UniProt P08050); experiment: GST pulldown of Cx43 from rat heart lysate, western blot; format: binding; conditions: GST fusion on glutathione beads, western blot for Cx43
T1 construct: from tissue; host or cells: rat heart lysate
T1 sequence (P08050 whole entry, the tested form may be a part): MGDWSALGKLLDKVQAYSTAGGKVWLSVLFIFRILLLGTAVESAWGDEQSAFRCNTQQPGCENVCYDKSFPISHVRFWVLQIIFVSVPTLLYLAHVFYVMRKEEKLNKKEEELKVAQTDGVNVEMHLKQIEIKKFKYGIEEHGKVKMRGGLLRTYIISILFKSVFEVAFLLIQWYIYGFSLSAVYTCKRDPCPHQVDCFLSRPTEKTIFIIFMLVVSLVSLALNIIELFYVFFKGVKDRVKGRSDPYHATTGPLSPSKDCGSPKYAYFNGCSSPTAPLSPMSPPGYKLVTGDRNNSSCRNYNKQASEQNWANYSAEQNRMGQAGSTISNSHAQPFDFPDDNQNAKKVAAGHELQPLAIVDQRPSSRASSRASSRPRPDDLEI
From the text: cDNA coding for […] (SEQ ID NO:11) (“NL.RXPE”) was cloned in-frame with the cDNA for glutathione S-transferase (“GST”). The resulting fusion protein, GST-NL.RXPE was produced in bacteria, and purified by conventional methods. GST-NL.RXPE was bound to glutathione beads and exposed to a rat heart lysate. After washing of the supernatant, the pellets were heated to separate the proteins from the beads. Two additional proteins were produced in parallel, and used as control: GST alone (not fused to any peptide) and GST fused to RXPE. After exposure to heart lysate, the resulting complexes that were “fished out” by the bait proteins were run on SDS-PAGE, transferred to a nitrocellulose membrane, and probed with an antibody for Cx43. […] It is expected that other peptides of formula A-An interact with Cx43, and may be used in the methods of the present invention.

[3] = biological target: T2, Cx43CT (Rattus norvegicus, UniProt P08050); experiment: Non-biased 12-mer phage display screening against Cx43CT; format: binding; conditions: 156 phage plaques sequenced after three rounds; pH 6.5
T2 construct: GST (N, cleaved yes); made in house; host or cells: E. coli BL-21
T2 sequence (P08050 255-382): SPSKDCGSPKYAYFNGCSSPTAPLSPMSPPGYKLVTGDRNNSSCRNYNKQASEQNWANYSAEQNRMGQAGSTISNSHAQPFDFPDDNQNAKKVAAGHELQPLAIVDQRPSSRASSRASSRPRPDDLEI
Method: A “library” of bacteriophage, displaying ˜[…] of 2.7×10^9 random 12-mer peptides (Ph.D.-12™ Phage display peptide library kit; New England BioLabs Inc.) was utilized. Wells in 24-well plates were coated with 15 μg of recombinant CT and blocked with 5 mg/ml BSA. After removing the unbound viruses by washing with Tris buffered saline containing 0.5% tween-20 (TBS-T), low affinity binders were eluted with a solution of TBS-containing Cx43CT at a concentration of 100 μg/ml. High affinity binders were recovered by overlaying the well with a culture of E. coli, to allow the tightly bound phage to infect the bacteria. This culture was amplified and the virus was precipitated with PEG. The amplified product was used for the subsequent round of panning. All steps were conducted at pH 6.5 unless otherwise indicated.
After three rounds of selection and amplification, the phage recovered from the last round of binding were grown on a lawn of E. coli for plaque purification. Each plaque, representing a single clone, was picked and amplified. The phage were isolated and analyzed by DNA sequencing.
The library was presented to Cx43CT. After three rounds of selection and amplification, DNA of 156 phage plaques was purified and sequenced. Of the estimated 2.7×10^9 different sequences in the library, 48 unique sequences were recovered. […]

Sequence: SDDLRSPQLHNHMVRRKPRNPR (RXP-containing peptide) [NL.RXPE]
- Rate of heptanol-induced uncoupling (normalized Gj) [1]: uncoupled at a much slower rate
- Recovery of Cx43 with GST-fused peptide as bait [2]: Cx43 was also recovered

Sequence: PRPTMGNLPDVL (Peptide sequence from phage library)
- Number of phage plaques from which the sequence was recovered [3]: 45 plaques
